According to patent US6436654B1, “Methods for identifying compounds that modulate HIF-1α” (Pharmacia & Upjohn AB, priority 1998, dated 2002):

Assays:
[1] = test system: GAL4 responsive reporter plasmid; assay: Cotransfection of GAL4-HIF-1α fusion proteins with GAL4 responsive luciferase reporter; assay type: cell-based, simian; conditions: for GAL4 reporter transcriptional activity (in words): with or without CBP / SRC-1; for stimulation of GAL4 reporter activity by coexpressed CBP / stimulation of GAL4 reporter activity by coexpressed SRC-1: hypoxic conditions, vs hypoxia without exogenous coactivator
Excerpt: To analyze functional activities of HIF-1α independently of the endogenous DNA binding and dimerization domains and the Arnt partner, we next fused HIF-1α to the heterologous DNA binding domain of GAL4. Functional activity of the fusion protein was monitored in COS7 cells by a cotransfection assay using a reporter gene construct carrying five GAL4 DNA binding elements in front of thymidine kinase promoter and the luciferase gene. Six hours after transfection media was changed, and cells were either left uninduced or exposed to 1% oxygen for 30 h prior to harvest. In the presence of either empty expression vector or a vector expressing the minimal GAL4 DNA binding domain, reporter gene activity was unaltered by reduced oxygen levels. […] The GAL4 DNA binding domain is known to harbor an NLS motif capable of taking fusion proteins to the nucleus (Ma and Ptashne (1987) Cell 51, 113-119). We therefore used antibodies directed against the DNA binding domain of GAL4 to examine in both normoxic and hypoxic cells the intracellular localization of the GAL4-HIF-1α fusion protein by immunofluorescence.
Transcriptional activity of GFP and GAL4 fusion constructs was analyzed in a cotransfection assay where effector plasmids (0.2 μg/30-mm dish) together with a reporter gene (1.5 μg/30-mm dish) were introduced into COS7 or HeLa cells. The reporter plasmid encoded firefly luciferase gene under the control of thymidine kinase minimal promoter and either five or three copies of GAL4 or HIF-responsive elements, respectively.

[2] = target: GST/Ref-1 (Homo sapiens, UniProt P27695); assay: Pull-down of [35S]methionine-labeled GAL4/HIF proteins with GST/Ref-1; assay type: binding; conditions: presence or absence of diamide
GST/Ref-1, sequence (P27695 whole entry, species assumed, the tested form may be a part): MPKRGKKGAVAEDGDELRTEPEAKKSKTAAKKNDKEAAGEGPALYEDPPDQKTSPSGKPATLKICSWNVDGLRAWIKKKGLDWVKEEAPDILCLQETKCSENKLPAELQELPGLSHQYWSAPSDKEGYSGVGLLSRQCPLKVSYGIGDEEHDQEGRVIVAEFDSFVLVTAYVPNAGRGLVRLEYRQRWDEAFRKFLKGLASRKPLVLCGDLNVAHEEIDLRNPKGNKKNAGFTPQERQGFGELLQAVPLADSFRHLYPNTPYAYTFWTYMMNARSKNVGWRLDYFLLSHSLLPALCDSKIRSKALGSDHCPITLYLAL
Description: The precise mechanism by which Ref-1 activates HIF-1α is not known. […] To further investigate whether Ref-1 could interact with HIF-1α, we tried to trap the interaction by using a crosslinking reagent such as diamide, which oxidizes cysteine sulfhydryls to disulfides. A series of experiments was performed with GST-tagged purified Ref-1. [^35S]methionine-labeled in vitro translated GAL4/HIF 1-826 was incubated with GST/Ref-1 in the presence or absence of diamide.
Next, we tried a series of pull-down experiments with [^35S]methionine-labeled in vitro translated GAL4/HIF […] and GAL4/HIF 531-584. […] An interaction between GAL4/HIF […] and GST/Ref-1 was also detected, and this interaction was enhanced in the presence of diamide. In excellent agreement with this observation the C-TAD contains two cysteine residues. […] Immunoblot analysis verified that the input concentrations of GST/Ref-1 or GST alone were similar.

Molecule	regulation by Ref-1 and the coactivators (in words) ([1]; Ref-1, CBP and SRC-1)	GAL4 reporter transcriptional activity (in words) [1]	binding to GST/Ref-1 (in words) [2]	stimulation of hypoxia-dependent activation response by p300ΔHAT ([1]; absence of SRC-1, hypoxia)	stimulation of GAL4 reporter activity by coexpressed CBP [1]	stimulation of GAL4 reporter activity by coexpressed SRC-1 [1]	hypoxia-dependent activation of GAL4 reporter gene activity ([1]; 1% O2 vs normoxia, no exogenous coactivator)
GAL4/HIF 776-813: GAL4 fusion of C-terminal transactivation domain lacking 13 most carboxy-terminal amino acids (SEQ ID NO: 15) (protein) MKLLSSIEQACDICRLKKLKCSKEKPKCAKCLKNNWECRYSPKTKRSPLTRAHLTEVESRLERLEQLFLLIFPREDLDMILKMDSLQDIKALLTGLFVQDNVNKDAVTDRLASVETDMPLTLRQHRISATSSSEESSNKGQRQLTVSSDLACRLLGQSMDESGLPQLTSYDCEVNAPIQGSRNLL	showed no regulation by Ref-1 and the coactivators	completely abrogated	–	–	–	–	–
GAL4/HIF 531-584: GAL4 chimeric protein spanning the N-terminal transactivation domain of HIF-1α (SEQ ID NO: 13) (protein) MKLLSSIEQACDICRLKKLKCSKEKPKCAKCLKNNWECRYSPKTKRSPLTRAHLTEVESRLERLEQLFLLIFPREDLDMILKMDSLQDIKALLTGLFVQDNVNKDAVTDRLASVETDMPLTLRQHRISATSSSEESSNKGQRQLTVSFKLELVEKLFAEDTEAKNPFSTQDTDLDLEMLAPYIPMDDDFQLRSFDQLSPLE	–	–	bound GST/Ref-1	2 fold	11 fold	1.5 fold	–
GAL4/HIF 776-826: GAL4 fusion containing the carboxy-terminal transactivation domain of HIF-1α (SEQ ID NO: 14) (protein) MKLLSSIEQACDICRLKKLKCSKEKPKCAKCLKNNWECRYSPKTKRSPLTRAHLTEVESRLERLEQLFLLIFPREDLDMILKMDSLQDIKALLTGLFVQDNVNKDAVTDRLASVETDMPLTLRQHRISATSSSEESSNKGQRQLTVSSDLACRLLGQSMDESGLPQLTSYDCEVNAPIQGSRNLLQGEELLRALDQVN	–	–	detected	–	29 fold	17 fold	about 2 fold
GAL4/HIF 526-641: GAL4 fusion with N-terminal transactivation domain and proposed inhibitory sequence (protein) MKLLSSIEQACDICRLKKLKCSKEKPKCAKCLKNNWECRYSPKTKRSPLTRAHLTEVESRLERLEQLFLLIFPREDLDMILKMDSLQDIKALLTGLFVQDNVNKDAVTDRLASVETDMPLTLRQHRISATSSSEESSNKGQRQLTVSDMVNEFKLELVEKLFAEDTEAKNPFSTQDTDLDLEMLAPYIPMDDDFQLRSFDQLSPLESSSASPESASPQSTVTVFQQTQIQEPTANATTTTATTDELKTVTKDRMEDIKILIAS	–	complete abrogation of the effect of CBP and SRC-1	–	–	–	–	–
